Measured values published in patent US20110318339A1 (FABRUS, published 2011).

Assays:
[1] = biological target: T1, Recombinant Human DLL4 (Cat# 1506-D4/CF, R&D Systems) (human, UniProt Q9NR61 27-529); assay: ELISA, DLL4 coated
T1 construct: Bought protein; also called rHuman DLL4; hDLL4

[2] = biological target: T1, Recombinant Human DLL4 (Cat# …); assay: ELISA, DLL4 coated, estimated from dose-dependent binding
Procedure: (§1) The plate was blocked by adding 1% BSA in Tris-buffered Saline Tween (TBST) and incubating for 1 hour at room temperature followed by washing 2 times with 150 μl TBST. A Fab antibody was serially diluted in 1% BSA in PBS. A 50 μl aliquot of each serial dilution was added, in triplicate, to each well and the plate was incubated for 1 hour at room temperature followed by washing 2 times with TBST. 50 μl of either goat anti-human kappa HRP conjugated secondary antibody (Cat # A7164-1 mL, Sigma-Aldrich) or goat anti-human lambda HRP conjugated secondary antibody (Cat # L1645-1 ml, Sigma-Aldrich), diluted 1:1000 in 1% BSA in PBS, was added to each well and the plate was incubated for 30 minutes at room temperature followed by washing 3 times with 200 μl TBST. Finally, 50 μl TMB one-component reagent (Cat # TMBW-1000-01, BioFax) was added and allowed to develop for 2 minutes at room temperature. The reaction was immediately halted by the addition of 50 μl 0.5M H₂SO₄ and the absorbance at 450 nm was measured using an ELISA plate reader.

[3] = biological target: T2, recombinant human DLL4 (Cat# 1506-D4/CF, R&D Systems) (human, UniProt Q9NR61 27-529); assay: ELISA, DLL4 coated, Fab 20 nM
T2 construct: Bought protein; also called hDLL4; rHuman DLL4
Procedure: as §1

[4] = biological target: T2, recombinant human DLL4 (Cat# …); assay: ELISA, DLL4 coated, Fab 25 nM
Procedure: as §1

[5] = biological target: T2, recombinant human DLL4 (Cat# …); assay: ELISA, DLL4 coated, Fab 50 nM
Procedure: (§2) In this example, an ELISA binding assay was used to assess the dose-dependent binding of Fab antibodies to recombinant human DLL4 and recombinant mouse DLL4.
as §1

[6] = biological target: T2, recombinant human DLL4 (Cat# …); assay: ELISA, DLL4 coated, Fab 100 nM
Procedure: as §2, §1

[7] = biological target: T2, recombinant human DLL4 (Cat# …); assay: ELISA, DLL4 coated, Fab 0.74 nM
Procedure: as §1

[8] = biological target: T2, recombinant human DLL4 (Cat# …); assay: ELISA, DLL4 coated, Fab 2.22 nM
Procedure: as §1

[9] = biological target: T2, recombinant human DLL4 (Cat# …); assay: ELISA, DLL4 coated, Fab 6.67 nM
Procedure: as §1

[10] = biological target: T2, recombinant human DLL4 (Cat# …); assay: ELISA, DLL4 coated, Fab 12.5 nM
Procedure: as §2, §1

[11] = biological target: T2, recombinant human DLL4 (Cat# …); assay: SPR (ProteOn), hDLL4 amine-coupled on chip
Procedure: In this example, the binding affinities of selected anti-DLL4 Fabs to recombinant human DLL4 (hDLL4, Cat# 1506-D4/CF, R&D Systems) were analyzed using Surface Plasmon Resonance (SPR) (Biosensor Tools, Salt Lake City, Utah). The Fabs analyzed include germline-derived antibodies and germline-modified DLL4 antibodies. Recombinant hDLL4 was immobilized on a SPR chip using amine coupling at three different surface densities. The Fabs were serially diluted 3-fold, with an initial concentration of 1 μM. Binding studies were run on a ProteOn system using a GLM sensor chip in 10 mM HEPES, pH 7.4, 150 mM NaCl, 0.01% Tween-20, and 0.1 mg/ml BSA at 25° C. The response data from each surface was globally fit to determine the binding constants.

B1: Fab H:APFF & L:NDH (Fab, V domains shown)
VH: QVQLVQSGAEVKKPGASVKVSCKASGYTFTSYYMHWVRQAPGQGLEWMGIINPSGGSTSYAQKFQGRVTMTRDTSTSTVYMELSSLRSEDTAVYYCAREEYAPFSAEYFQFWGQGTLVTVSS
VL: EIVLTQSPATLSLSPGERATLSCRASQNVDHYLAWYQQKPGQAPRLLIYDASNRATGIPARFSGSGSGTDFTLTISSLEPEDFAVYYCQQRSNWPPWTFGQGTKVEIKR
notes: Fab, kappa light chain; also called VH1-46_IGHD6-6*01_IGHJ1*01 S102A/S103P/S104F/H111F & L6_IGKJ1*01 S28N/S30D/S31H
- fold increased affinity against Fab mutant APFF (H:APFF & L:wt) [1]: 4 fold

B2: Fab H:APFF VLTH & L:NDH LG (Fab, V domains shown)
VH: QVQLVQSGAEVKKPGASVKVSCKASGYTFTSYYMHWVRQAPGQGLEWMGIVLPTGHSTSYAQKFQGRVTMTRDTSTSTVYMELSSLRSEDTAVYYCAREEYAPFSAEYFQFWGQGTLVTVSS
VL: EIVLTQSPATLSLSPGERATLSCRASQNVDHYLAWYQQKPGQAPRLLIYDALNRGTGIPARFSGSGSGTDFTLTISSLEPEDFAVYYCQQRSNWPPWTFGQGTKVEIKR
notes: Fab, kappa light chain
- fold increased binding affinity against the antibody mutants with heavy chain H:APFF ALTH [1]: ~10 fold

B3: Fab H:APFF TLATH & L6_IGKJ1*01 (Fab, V domains shown)
VH: QVQLVQSGAEVKKPGASVKVSCKASGYTFTSYYMHWVRQAPGQGLEWMGITLATGHSTSYAQKFQGRVTMTRDTSTSTVYMELSSLRSEDTAVYYCAREEYAPFSAEYFQFWGQGTLVTVSS
VL: not shown
notes: Fab, kappa light chain; also called H:APFF TLATH & L:wt
- Kd [2]: > 100 nM

B4: Fab H:APFF LTH & L:NDH (Fab, V domains shown)
VH: QVQLVQSGAEVKKPGASVKVSCKASGYTFTSYYMHWVRQAPGQGLEWMGIILPTGHSTSYAQKFQGRVTMTRDTSTSTVYMELSSLRSEDTAVYYCAREEYAPFSAEYFQFWGQGTLVTVSS
VL: EIVLTQSPATLSLSPGERATLSCRASQNVDHYLAWYQQKPGQAPRLLIYDASNRATGIPARFSGSGSGTDFTLTISSLEPEDFAVYYCQQRSNWPPWTFGQGTKVEIKR
notes: Fab, kappa light chain
- fold increased binding affinity against the antibody mutants with heavy chain H:APFF ALTH [1]: ~10 fold

B5: Fab H:APFF TV & L6_IGKJ1*01 (Fab, V domains shown)
VH: QVQLVQSGAEVKKPGASVKVSCKASGYTFTSYYMHWVRQAPGQGLEWMGITVPSGGSTSYAQKFQGRVTMTRDTSTSTVYMELSSLRSEDTAVYYCAREEYAPFSAEYFQFWGQGTLVTVSS
VL: not shown
notes: Fab, kappa light chain; also called H:APFF TV & L:wt; APFF I51T/N52V
- Kd [2]: 10 to 100 nM

B6: Fab H:APFF NLTH & L6_IGKJ1*01 (Fab, V domains shown)
VH: QVQLVQSGAEVKKPGASVKVSCKASGYTFTSYYMHWVRQAPGQGLEWMGINLPTGHSTSYAQKFQGRVTMTRDTSTSTVYMELSSLRSEDTAVYYCAREEYAPFSAEYFQFWGQGTLVTVSS
VL: not shown
notes: Fab, kappa light chain; also called H:APFF NLTH & L:wt
- Kd [2]: 1 to 10 nM

B7: Fab H:APFF G56A & L:NDH (Fab, V domains shown)
VH: QVQLVQSGAEVKKPGASVKVSCKASGYTFTSYYMHWVRQAPGQGLEWMGIINPSGASTSYAQKFQGRVTMTRDTSTSTVYMELSSLRSEDTAVYYCAREEYAPFSAEYFQFWGQGTLVTVSS
VL: EIVLTQSPATLSLSPGERATLSCRASQNVDHYLAWYQQKPGQAPRLLIYDASNRATGIPARFSGSGSGTDFTLTISSLEPEDFAVYYCQQRSNWPPWTFGQGTKVEIKR
notes: Fab, kappa light chain
- fold greater affinity against H:APFF & L:wt [1]: 8 fold

B8: Fab H:APFF ELTH & L6_IGKJ1*01 (Fab, V domains shown)
VH: QVQLVQSGAEVKKPGASVKVSCKASGYTFTSYYMHWVRQAPGQGLEWMGIELPTGHSTSYAQKFQGRVTMTRDTSTSTVYMELSSLRSEDTAVYYCAREEYAPFSAEYFQFWGQGTLVTVSS
VL: not shown
notes: Fab, kappa light chain; also called H:APPF ELTH; H:APFF ELTH & L:wt
- Kd [2]: 1 to 10 nM

B9: Fab H:APFF LTH & L:NDH LS (Fab, V domains shown)
VH: QVQLVQSGAEVKKPGASVKVSCKASGYTFTSYYMHWVRQAPGQGLEWMGIILPTGHSTSYAQKFQGRVTMTRDTSTSTVYMELSSLRSEDTAVYYCAREEYAPFSAEYFQFWGQGTLVTVSS
VL: EIVLTQSPATLSLSPGERATLSCRASQNVDHYLAWYQQKPGQAPRLLIYDALNRSTGIPARFSGSGSGTDFTLTISSLEPEDFAVYYCQQRSNWPPWTFGQGTKVEIKR
notes: Fab, kappa light chain
- fold increased binding affinity against the antibody mutants with heavy chain H:APFF ALTH [1]: ~10 fold

B10: Fab H:APFF LTH & L:NDH LG (Fab, V domains shown)
VH: QVQLVQSGAEVKKPGASVKVSCKASGYTFTSYYMHWVRQAPGQGLEWMGIILPTGHSTSYAQKFQGRVTMTRDTSTSTVYMELSSLRSEDTAVYYCAREEYAPFSAEYFQFWGQGTLVTVSS
VL: EIVLTQSPATLSLSPGERATLSCRASQNVDHYLAWYQQKPGQAPRLLIYDALNRGTGIPARFSGSGSGTDFTLTISSLEPEDFAVYYCQQRSNWPPWTFGQGTKVEIKR
notes: Fab, kappa light chain
- fold increased binding affinity against the antibody mutants with heavy chain H:APFF ALTH [1]: ~10 fold

B11: Fab H:APFF VLTH & L6_IGKJ1*01 (Fab, V domains shown)
VH: QVQLVQSGAEVKKPGASVKVSCKASGYTFTSYYMHWVRQAPGQGLEWMGIVLPTGHSTSYAQKFQGRVTMTRDTSTSTVYMELSSLRSEDTAVYYCAREEYAPFSAEYFQFWGQGTLVTVSS
VL: not shown
notes: Fab, kappa light chain; also called H:APPF VLTH; H:APFF VLTH & L:wt
- Kd [2]: 1 to 10 nM

B12: Fab H:APFF LTH & L6_IGKJ1*01 (Fab, V domains shown)
VH: QVQLVQSGAEVKKPGASVKVSCKASGYTFTSYYMHWVRQAPGQGLEWMGIILPTGHSTSYAQKFQGRVTMTRDTSTSTVYMELSSLRSEDTAVYYCAREEYAPFSAEYFQFWGQGTLVTVSS
VL: not shown
notes: Fab, kappa light chain; also called H:APFF LTH & L:wt
- Kd [2]: 1 to 10 nM

B13: Fab VH5-51_IGHD5-18*01>3_IGHJ4*01 G100K/G104T & V3-4_IGLJ1*01 (Fab, V domains shown)
VH: EVQLVQSGAEVKKPGESLKISCKGSGYSFTSYWIGWVRQMPGKGLEWMGIIYPGDSDTRYSPSFQGQVTISADKSISTAYLQWSSLKASDTAMYYCARRKYSYTYDYFDYWGQGTLVTVSS
VL: QTVVTQEPSFSVSPGGTVTLTCGLSSGSVSTSYYPSWYQQTPGQAPRTLIYSTNTRSSGVPDRFSGSILGNKAALTITGAQADDESDYYCVLYMGSGISYVFGTGTKVTVL
notes: Fab made in E. coli: VH on CH1 with His6 and Flag tags (Plasmid A), VL on lambda CL (Plasmid E); also called H: KT & L: wt
- ELISA absorbance at 450 nm [3]: 0.018 A450
- ELISA absorbance at 450 nm [4]: 0.16 A450
- ELISA absorbance at 450 nm [5]: 0.18 A450
- ELISA absorbance at 450 nm [6]: 0.18 A450
- ELISA absorbance at 450 nm [7]: 0.019 A450
- ELISA absorbance at 450 nm [8]: 0.014 A450
- ELISA absorbance at 450 nm [9]: 0.042 A450
- ELISA absorbance at 450 nm [10]: 0.18 A450

B14: Fab VH5-51_IGHD5-18*01>3_IGHJ4*01 G100K/G104T S28R & V3-4_IGLJ1*01 (Fab, V domains shown)
VH: EVQLVQSGAEVKKPGESLKISCKGSGYRFTSYWIGWVRQMPGKGLEWMGIIYPGDSDTRYSPSFQGQVTISADKSISTAYLQWSSLKASDTAMYYCARRKYSYTYDYFDYWGQGTLVTVSS
VL: QTVVTQEPSFSVSPGGTVTLTCGLSSGSVSTSYYPSWYQQTPGQAPRTLIYSTNTRSSGVPDRFSGSILGNKAALTITGAQADDESDYYCVLYMGSGISYVFGTGTKVTVL
notes: Fab made in E. coli: VH on CH1 with His6 and Flag tags (Plasmid A), VL on lambda CL (Plasmid E); also called H: KT S28R & L: wt
- ELISA absorbance at 450 nm [3]: 0.009 A450
- ELISA absorbance at 450 nm [4]: 0.2 A450
- ELISA absorbance at 450 nm [5]: 0.23 A450
- ELISA absorbance at 450 nm [6]: 0.26 A450
- ELISA absorbance at 450 nm [7]: 0 A450
- ELISA absorbance at 450 nm [8]: 0 A450
- ELISA absorbance at 450 nm [9]: 0.003 A450
- ELISA absorbance at 450 nm [10]: 0.18 A450
- Kd [11]: 114 nM
- koff [11]: 0.0845 s⁻¹
- kon [11]: 740000 M⁻¹ s⁻¹
